{"source": "paper PMC3447994", "origin": "cited, not measured here", "target": "IgG Fc Fc (Homo sapiens) [IgG part: P01857]", "data": [{"substance": "FcγRIIIa (from UniProt P08637)", "values": [{"measurement": "Kd", "result": 2000, "unit": "nM"}]}]}
